# B1: Pantoea stewartii WceF (residues 29-736, lacking the Tat signal peptide) (enzyme)
# chain: KNTGLALKSVDATAIPKGDVPILTPENVYAMPPQFWQNFQGKLWIGRAGSDARQPGNQIPVFLRDANGNLAQITQPITLNKGNFDQFVKDNAALIANPSHAMALEDSNGQTVFNIPDVSQPGQAAFSQRLAQPAGYQLIGEIPSVDDLRKTRPLFEGAKIKLKSWHPGLEVGGGEFVGSFQPAQDDQGVIFSGDGFHWRRVVDDYNRLSLFDFGAIADGKTDSAPAIKAMYQWSQQSDQPICVQFPAGTFFVTGCDFGEEQRRFFRISGAMVNFGYFPATTIVSDGQSPFVFEVSARWVEISNLIFNGNTDTKPNRQGLLRNTCPGGQFFRGACLRFNNVGGTALSLLDTLDCKIDQWYASACTGDVIQAGWSGQKKGNWDHSTAIELSNFNAQHCKGGKVLNLPRCSQSLIHNGWIEHCDNPGDISNGQWIIDALSLEDCKNPLIAWHSRLNTRQTNLQSGSWIDNSEQGDRWLSAWEMGSTRVESYGVAIDGSLKYNYLTSRWLLENNTSQPVWYELANLYSPTVGDSWEIEVFGQSQFNNGTDSEPLMNLIDGRNTGGRAVIHVQRKKDHAEASWSAEGSSPVLDVRYVAKTDTDTQVFIRLAGWTPSAAIMIKSTAKDRFVTGRCARVDAKMAKATPDSGSHAAPQRFSLHNGKAGVGANEQGDLLLASRALSADNVDTRKPEGFVSVVINGKTVALPYFAIKA
# notes: WceF of Pantoea stewartii subsp. stewartii DSM 30176, amplified from genomic DNA; recombinant construct residues 29-736 without the N-terminal 28 amino acids of the Tat signal peptide (the methods say aa 28-736); residues 34-736 resolved in the electron density; His6 tag followed by a TEV site, cleaved off for the purified protein; The forward primer encodes ...ENLYFQG-AKNTGL, so a glycine …
# B2: bacteriophage HK620 tailspike protein (natural protein)
# chain: DPDQFRAIIESPEGAGHVGYQYRRNTGSTMRMVSDVLDERVSLWDFHCDPSGNVIQPGPNVDSRQYLQAAIDYVSSNGGGTITIPAGYTWYLGSYGVGGIAGHSGIIQLRSNVNLNIEGRIHLSPFFDLKPFQVFVGFDNGDPASSGNLENCHIYGHGVVDFGGYEFGASSQLRNGVAFGRSYNCSVTGITFQNGDVTWAITLGWNGYGSNCYVRKCRFINLVNSSVNADHSTVYVNCPYSGVESCYFSMSSSFARNIACSVELHQHDTFYRGSTVNGYCRGAYVVMHAAEAAGAGSYAYNMQVENNIAVIYGQFVILGSDVTATVSGHLNDVIVSGNIVSIGERAAFSAPFGAFIDIGPDNSGASNVQDIQRVLVTGNSFYAPANITDSAAITLRANLNGCTFIANNFDCRYMVYNAPGTTSPVVQNLVWDKSNVIGGTHANQRAGQNLFDMQFASVVNSTIEVQLSCEDLSMFSCILFPASCQLSYSKITVDSAWTKSMSNTAVFEGNQQAGANVYVSYPATVNLTSYNTQGAVPFFSTDTNYAWVTSAYSLSINENLDFSPPATYTNKANGQLVGVGYNEIGGVRSVSVRLMLQRQV
# notes: also called HK620TSP; source: purified
# B3: bacteriophage P22 tailspike protein (natural protein)
# chain: YDPDQYSIEADKKFKYSVKLSDYPTLQDAASAAVDGLLIDRDYNFYGGETVDFGGKVLTIECKAKFIGDGNLIFTKLGKGSRIAGVFMESTTTPWVIKPWTDDNQWLTDAAAVVATLKQSKTDGYQPTVSDYVKFPGIETLLPPNAKGQNITSTLEIRECIGVEVHRASGLMAGFLFRGCHFCKMVDANNPSGGKDGIITFENLSGDWGKGNYVIGGRTSYGSVSSAQFLRNNGGFERDGGVIGFTSYRAGESGVKTWQGTVGSTTSRNYNLQFRDSVVIYPVWDGFDLGADTDMNPELDRPGDYPITQYPLHQLPLNHLIDNLLVRGALGVGFGMDGKGMYVSNITVEDCAGSGAYLLTHESVFTNIAIIDTNTKDFQANQIYISGACRVNGLRLIGIRSTDGQGLTIDAPNSTVSGITGMVDPSRINVANLAEEGLGNIRANSFGYDSAAIKLRIHKLSKTLDSGALYSHINGGAGSGSAYTQLTAISGSTPDAVSLKVNHKDCRGAEIPFVPDIASDDFIKDSSCFLPYWENNSTSLKALVKKPNGELVRLTLATL
# notes: also called P22TSP; source: purified
# Assays:
# [1] = target: the molecule itself; test: SEC; size-exclusion chromatography of purified WceF (Fig. S2); conditions not shown
# SDS-PAGE without heating = target: the molecule itself; test: SDS-PAGE without heating
# [2] = target: the molecule itself; test: SDS-PAGE without heating; purified HK620TSP and P22TSP in 2% (w/v) SDS, with or without heating for 5 min
protein,measurement,setting,value
B1,stoichiometry N,[1],3
B2,stoichiometry N,SDS-PAGE without heating,3
B3,stoichiometry N,[2],3

# Reference: article PMC7949094, “Pantoea stewartii WceF is a glycan biofilm-modifying enzyme with a bacteriophage tailspike-like fold” (The Journal of Biological Chemistry, 2021)
